Molecular target: p300 (UniProt Q09472)
Experiment: cell-based or functional assay

Chain of p300 (Q09472 2-2414 limits assumed): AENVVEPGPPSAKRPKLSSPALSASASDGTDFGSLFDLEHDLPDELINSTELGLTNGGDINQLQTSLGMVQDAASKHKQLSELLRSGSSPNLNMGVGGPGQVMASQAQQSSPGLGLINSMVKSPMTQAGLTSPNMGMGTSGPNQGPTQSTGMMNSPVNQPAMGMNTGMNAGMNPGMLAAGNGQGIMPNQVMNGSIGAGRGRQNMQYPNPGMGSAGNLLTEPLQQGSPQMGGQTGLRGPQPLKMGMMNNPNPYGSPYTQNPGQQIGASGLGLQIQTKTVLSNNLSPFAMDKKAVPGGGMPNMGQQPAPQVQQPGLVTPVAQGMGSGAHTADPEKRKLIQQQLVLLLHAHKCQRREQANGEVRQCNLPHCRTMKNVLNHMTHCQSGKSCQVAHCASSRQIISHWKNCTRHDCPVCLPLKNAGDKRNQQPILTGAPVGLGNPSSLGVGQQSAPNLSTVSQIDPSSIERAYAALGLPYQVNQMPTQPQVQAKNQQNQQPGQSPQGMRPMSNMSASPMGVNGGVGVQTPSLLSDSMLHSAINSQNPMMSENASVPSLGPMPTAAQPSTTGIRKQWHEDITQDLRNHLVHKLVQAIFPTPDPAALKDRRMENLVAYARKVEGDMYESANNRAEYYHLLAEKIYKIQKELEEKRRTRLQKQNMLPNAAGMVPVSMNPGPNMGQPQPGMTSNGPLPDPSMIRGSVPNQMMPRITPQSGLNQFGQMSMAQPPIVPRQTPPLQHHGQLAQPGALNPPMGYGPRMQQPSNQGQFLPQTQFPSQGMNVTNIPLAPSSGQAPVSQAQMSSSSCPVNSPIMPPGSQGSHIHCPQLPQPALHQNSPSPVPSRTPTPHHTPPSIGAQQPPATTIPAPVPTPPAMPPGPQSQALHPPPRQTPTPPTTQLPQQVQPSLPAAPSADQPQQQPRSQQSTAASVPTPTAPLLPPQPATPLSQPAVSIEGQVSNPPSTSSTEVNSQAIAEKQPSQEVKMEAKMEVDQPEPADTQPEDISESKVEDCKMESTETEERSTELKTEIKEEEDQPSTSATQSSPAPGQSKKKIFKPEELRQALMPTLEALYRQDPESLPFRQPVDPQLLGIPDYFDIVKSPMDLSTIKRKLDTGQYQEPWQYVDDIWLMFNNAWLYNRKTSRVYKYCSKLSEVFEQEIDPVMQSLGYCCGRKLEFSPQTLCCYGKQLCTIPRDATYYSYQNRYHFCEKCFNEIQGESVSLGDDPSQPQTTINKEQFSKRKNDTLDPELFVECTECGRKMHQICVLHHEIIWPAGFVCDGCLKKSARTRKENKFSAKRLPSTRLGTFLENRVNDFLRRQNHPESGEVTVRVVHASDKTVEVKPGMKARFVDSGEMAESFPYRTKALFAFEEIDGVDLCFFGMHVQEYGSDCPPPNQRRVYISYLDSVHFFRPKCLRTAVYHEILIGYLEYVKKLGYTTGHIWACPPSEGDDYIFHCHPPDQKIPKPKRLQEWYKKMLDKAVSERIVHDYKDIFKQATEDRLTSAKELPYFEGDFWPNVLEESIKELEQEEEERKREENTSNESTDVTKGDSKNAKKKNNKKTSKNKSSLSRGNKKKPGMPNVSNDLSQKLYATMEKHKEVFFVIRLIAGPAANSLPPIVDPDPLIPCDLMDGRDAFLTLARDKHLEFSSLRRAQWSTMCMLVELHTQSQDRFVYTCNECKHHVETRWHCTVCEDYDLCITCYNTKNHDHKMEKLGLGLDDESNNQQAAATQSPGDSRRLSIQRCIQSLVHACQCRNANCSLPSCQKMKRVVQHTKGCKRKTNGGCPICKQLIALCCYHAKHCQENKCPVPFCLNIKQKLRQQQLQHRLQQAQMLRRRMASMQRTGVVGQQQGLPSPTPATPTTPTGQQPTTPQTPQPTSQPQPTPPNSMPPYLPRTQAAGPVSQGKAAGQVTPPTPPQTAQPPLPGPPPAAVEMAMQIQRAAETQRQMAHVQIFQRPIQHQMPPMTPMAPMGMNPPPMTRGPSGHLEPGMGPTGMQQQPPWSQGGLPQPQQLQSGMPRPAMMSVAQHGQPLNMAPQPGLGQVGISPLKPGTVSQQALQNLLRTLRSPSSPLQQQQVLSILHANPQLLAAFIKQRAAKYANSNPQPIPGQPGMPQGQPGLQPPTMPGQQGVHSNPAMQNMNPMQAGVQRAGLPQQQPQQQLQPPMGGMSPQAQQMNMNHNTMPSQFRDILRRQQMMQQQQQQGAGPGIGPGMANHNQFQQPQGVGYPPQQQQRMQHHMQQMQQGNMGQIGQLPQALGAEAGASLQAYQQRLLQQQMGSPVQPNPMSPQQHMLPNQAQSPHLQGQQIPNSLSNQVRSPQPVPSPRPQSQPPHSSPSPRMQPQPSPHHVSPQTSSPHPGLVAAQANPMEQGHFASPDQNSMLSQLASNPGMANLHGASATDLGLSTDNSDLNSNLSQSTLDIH

**Q.** For “E1AΔ2-36, a p300 binding-defective mutant”, which cyclin D1 promoter CD1 (-1745/+134) luciferase activity with SENP1 (PC-3 cells) is on record?
**A.** Its cyclin D1 promoter CD1 (-1745/+134) luciferase activity with SENP1 (PC-3 cells) is 38%.
